Source: ChEMBL document CHEMBL1137638, “TEM-158 (CMT-9), a new member of the CMT-type extended-spectrum beta-lactamases” (Antimicrob Agents Chemother, 2007)

Assays:
[1] = substrate: CC(C)(O/N=C(\C(=O)N[C@@H]1C(=O)N2C(C(=O)[O-])=C(C[n+]3ccccc3)CS[C@H]12)c1csc(N)n1)C(=O)O; conditions: Escherichia coli; DH5alpha CL1179
[2] = substrate: CC1(C)S[C@@H]2[C@H](NC(=O)[C@H](C(=O)O)c3ccsc3)C(=O)N2[C@H]1C(=O)O; assay: (§1) Activity of Escherichia coli DH5alpha beta-lactamase TEM-158 by microacidimetric method
[3] = substrate: CCN1CCN(C(=O)N[C@@H](C(=O)N[C@@H]2C(=O)N3[C@@H]2SC(C)(C)[C@@H]3C(=O)O)c2ccccc2)C(=O)C1=O; assay: as §1
[4] = substrate: CC1(C)S[C@@H]2[C@H](NC(=O)[C@H](N)c3ccc(O)cc3)C(=O)N2[C@H]1C(=O)O; assay: as §1
[5] = substrate: CC(C)(O/N=C(\C(=O)N[C@@H]1C(=O)N2C(C(=O)[O-])=C(C[n+]3ccccc3)CS[C@H]12)c1csc(N)n1)C(=O)O; assay: as §1
[6] = substrate: CC(=O)OCC1=C(C(=O)O)N2C(=O)[C@@H](NC(=O)Cc3cccs3)[C@H]2SC1; assay: as §1
[7] = substrate: CC1(C)S[C@@H]2[C@H](NC(=O)Cc3ccccc3)C(=O)N2[C@H]1C(=O)O; assay: as §1
[8] = substrate: CC(C)(O/N=C(\C(=O)N[C@@H]1C(=O)N2C(C(=O)[O-])=C(C[n+]3ccccc3)CS[C@H]12)c1csc(N)n1)C(=O)O; conditions: Escherichia coli; TO799
[9] = substrate: CC1(C)S[C@@H]2[C@H](NC(=O)[C@H](C(=O)O)c3ccsc3)C(=O)N2[C@H]1C(=O)O; assay: (§2) Activity of Escherichia coli DH5alpha beta-lactamase TEM-1 by microacidimetric method
[10] = substrate: CCN1CCN(C(=O)N[C@@H](C(=O)N[C@@H]2C(=O)N3[C@@H]2SC(C)(C)[C@@H]3C(=O)O)c2ccccc2)C(=O)C1=O; assay: as §2
[11] = substrate: CC1(C)S[C@@H]2[C@H](NC(=O)[C@H](N)c3ccc(O)cc3)C(=O)N2[C@H]1C(=O)O; assay: as §2
[12] = substrate: CC(C)(O/N=C(\C(=O)N[C@@H]1C(=O)N2C(C(=O)[O-])=C(C[n+]3ccccc3)CS[C@H]12)c1csc(N)n1)C(=O)O; assay: as §2
[13] = substrate: CC(=O)OCC1=C(C(=O)O)N2C(=O)[C@@H](NC(=O)Cc3cccs3)[C@H]2SC1; assay: as §2
[14] = substrate: CC1(C)S[C@@H]2[C@H](NC(=O)Cc3ccccc3)C(=O)N2[C@H]1C(=O)O; assay: as §2
[15] = substrate: CO/N=C(\C(=O)N[C@@H]1C(=O)N2C(C(=O)O)=C(COC(C)=O)CS[C@H]12)c1csc(N)n1; assay: as §2

B1: Beta lactamase TEM-152 (Escherichia coli), Q09Q13 (protein)
chain: MSIQHFRVALIPFFAAFCLPVFAHPETLVKVKDAEDQLGARVGYIELDLNSGKILESFRPEERFPMVSTFKVLLCGAVLSRVDAGQEQLGRRIHYSQNDLVEYSPVTEKHLTDGMTVRELCSAAITMSDNTAANLLLTTIGGPKELTAFLHNMGDHVTRLDHWEPELNEAIPNDERDTTMPAAMATTLRKLLTGELLTLASRQQLIDWMEADKVAGPLLRSALPAGWFIADKSGAGKRGSRGIIAALGPDGKPSRIVVIYTTGSQATMDERDRQIAEIGASLIKHW
kcat [1]: 40 s⁻¹

B2: CMT-type beta lactamase (Escherichia coli), A5HJU3 (protein)
chain: MSIQHFRVALIPFFAAFCLPVFAHPETLVKVKDAEDQLGARVGYIELDLNSGKILESFRPEERFPMLSTFKVLLCGAVLSRVDAGQEQLGRRIHYSQNDLVEYSPVTEKHLTDGMTVRELCSAAITMSDNTAANLLLTTIGGPKELTAFLHNMGDHVTRLDSWEPELNEAIPNDERDTTMPAAMATTLRKLLTGELLTLASRQQLIDWMEADKVAGPLLRSALPAGWFIADKSGAGERGSRGIIAALGPDGKPSRIVVIYTTGSQATMDERDRQIAEIGASLIKHW
Km [2]: 143 µM | kcat [2]: 4.2 s⁻¹ | Km [3]: 46 µM | kcat [3]: 17.1 s⁻¹ | Km [4]: 24.8 µM | kcat [4]: 14.4 s⁻¹ | kcat [5]: 1.7 s⁻¹ | Km [6]: 170 µM | kcat [6]: 0.26 s⁻¹ | Km [7]: 38.1 µM | kcat [7]: 18.5 s⁻¹

B3: Beta-lactamase TEM-125 (Escherichia coli), Q6GWS8 (protein)
chain: MSIQHFRVALIPFLAAFCLPVFAHPETLVKVKDAEDQLGARVGYIELDLNSGKILESFRPEERFPMLSTFKVLLCGAVLSRVDAGQEQLGRRIHYSQNDLVEYSPVTEKHLTDGMTVRELCSAAITMSDNTAANLLLTTIGGPKELTAFLHNMGDHVTRLDSREPELNEAIPNDERDTTMPAAMATTLRKLLTGELLTLASRQQLIDWMEADKVAGPLLRSALPAGWFIADKSGAGERGSRGIIAALGPDGKPSRIVVIYTTGSQATMDERDRQIAEIGASLIKHW
kcat [8]: 3.7 s⁻¹

B4: Beta-lactamase TEM (Escherichia coli), P62593 (protein)
chain: MSIQHFRVALIPFFAAFCLPVFAHPETLVKVKDAEDQLGARVGYIELDLNSGKILESFRPEERFPMMSTFKVLLCGAVLSRVDAGQEQLGRRIHYSQNDLVEYSPVTEKHLTDGMTVRELCSAAITMSDNTAANLLLTTIGGPKELTAFLHNMGDHVTRLDRWEPELNEAIPNDERDTTMPAAMATTLRKLLTGELLTLASRQQLIDWMEADKVAGPLLRSALPAGWFIADKSGAGERGSRGIIAALGPDGKPSRIVVIYTTGSQATMDERNRQIAEIGASLIKHW
Km [9]: 36 µM | kcat [9]: 135 s⁻¹ | Km [10]: 55 µM | kcat [10]: 1250 s⁻¹ | Km [11]: 15 µM | kcat [11]: 1120 s⁻¹ | kcat [12]: < 0.1 s⁻¹ | kcat [13]: 165 s⁻¹ | Km [14]: 34 µM | kcat [14]: 1500 s⁻¹ | kcat [15]: < 0.1 s⁻¹
